In patent US20240287172A1 (SCIRHOM, published 2024):

T1: dog iRhom2 full length wild type, T7-tagged (dog, UniProt Q00M95 1-827)
T1 construct: whole, on cells; on MEF-DKO cells; also called Dog-iR2-FL-WT-T7
T1 sequence: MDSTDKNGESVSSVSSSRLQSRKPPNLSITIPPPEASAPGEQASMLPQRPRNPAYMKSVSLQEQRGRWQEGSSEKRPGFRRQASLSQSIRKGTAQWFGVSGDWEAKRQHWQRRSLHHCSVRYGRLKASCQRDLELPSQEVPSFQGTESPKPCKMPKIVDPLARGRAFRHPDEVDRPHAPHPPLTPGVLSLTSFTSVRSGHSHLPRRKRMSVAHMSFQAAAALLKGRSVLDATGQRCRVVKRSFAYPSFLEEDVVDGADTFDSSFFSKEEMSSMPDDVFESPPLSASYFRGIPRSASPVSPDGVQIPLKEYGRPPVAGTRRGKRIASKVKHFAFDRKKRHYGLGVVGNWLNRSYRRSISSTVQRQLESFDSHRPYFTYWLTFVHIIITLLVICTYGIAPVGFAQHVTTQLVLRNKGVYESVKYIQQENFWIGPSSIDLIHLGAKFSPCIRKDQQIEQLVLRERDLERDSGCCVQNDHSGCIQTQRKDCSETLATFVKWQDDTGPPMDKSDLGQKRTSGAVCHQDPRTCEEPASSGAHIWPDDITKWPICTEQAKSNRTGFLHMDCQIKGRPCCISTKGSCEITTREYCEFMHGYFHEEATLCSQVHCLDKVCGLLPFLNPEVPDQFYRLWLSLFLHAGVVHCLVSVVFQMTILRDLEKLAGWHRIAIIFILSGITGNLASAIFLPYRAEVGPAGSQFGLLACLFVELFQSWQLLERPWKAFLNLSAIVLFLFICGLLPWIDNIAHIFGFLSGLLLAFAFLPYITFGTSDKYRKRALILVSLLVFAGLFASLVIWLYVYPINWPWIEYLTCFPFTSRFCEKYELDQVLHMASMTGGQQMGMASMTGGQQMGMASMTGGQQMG

T2: hiR2-FL-P533-T7 (deletion of P533) (human, UniProt Q6PJF5 1-856)
T2 construct: single residue deletion, not a substitution; on MEF-DKO cells
T2 sequence: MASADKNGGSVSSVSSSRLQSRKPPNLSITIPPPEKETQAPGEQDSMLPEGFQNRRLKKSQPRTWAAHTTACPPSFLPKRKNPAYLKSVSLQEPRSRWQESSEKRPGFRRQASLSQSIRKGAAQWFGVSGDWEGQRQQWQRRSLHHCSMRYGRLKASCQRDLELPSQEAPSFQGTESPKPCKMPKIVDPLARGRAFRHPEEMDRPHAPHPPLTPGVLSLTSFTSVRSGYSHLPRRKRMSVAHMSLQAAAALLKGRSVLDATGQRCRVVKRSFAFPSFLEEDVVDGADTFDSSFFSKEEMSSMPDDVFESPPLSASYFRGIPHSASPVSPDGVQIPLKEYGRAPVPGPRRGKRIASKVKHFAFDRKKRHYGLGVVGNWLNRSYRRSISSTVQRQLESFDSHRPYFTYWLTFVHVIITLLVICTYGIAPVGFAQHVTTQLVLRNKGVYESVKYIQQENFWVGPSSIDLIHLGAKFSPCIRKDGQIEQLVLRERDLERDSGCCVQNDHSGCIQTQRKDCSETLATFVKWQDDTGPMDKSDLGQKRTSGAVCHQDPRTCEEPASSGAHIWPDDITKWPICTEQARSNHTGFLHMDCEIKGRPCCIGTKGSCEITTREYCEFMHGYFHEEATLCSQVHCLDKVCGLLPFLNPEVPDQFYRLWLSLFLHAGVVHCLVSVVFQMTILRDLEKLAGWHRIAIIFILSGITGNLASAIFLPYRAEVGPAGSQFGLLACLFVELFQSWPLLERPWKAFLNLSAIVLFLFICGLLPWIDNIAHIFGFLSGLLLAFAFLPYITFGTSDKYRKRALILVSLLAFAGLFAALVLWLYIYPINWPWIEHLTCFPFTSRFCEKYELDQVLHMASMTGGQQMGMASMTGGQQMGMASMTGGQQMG


What was measured:
[1] = biological target: T1, dog iRhom2 full length wild type, …; assay: FACS, MEF-DKO cells; via representative antibody 16
Description: In brief, immortalized MEF-DKO-EV control cells, MEF-DKO-rhesus-iR2-FL-WT-T7 cells, MEF-DKO-cyno-iR2-FL-WT-T7 cells, MEF-DKO-dog-iR2-FL-WT-T7 cells and MEF-DKO-rabbit-iR2-FL-WT-T7 cells, as well as their respective iRhom1 counterparts, were harvested with 10 mM EDTA in PBS, washed and resuspended in FACS buffer (PBS, 3% FBS, 0.05% sodium azide), and seeded in Nunc U-bottom 96-well plates (Thermo Fisher Scientific, USA) at approximately 3×10⁵ cells per well. To pellet cells and remove supernatants, the plates were centrifuged at 1,500 rpm and 4° C. for 3 minutes. For primary staining, cells were resuspended in 100 μl per well of either FACS buffer alone (controls), mouse monoclonal anti-T7 IgG (Merck Millipore, USA) at 3 μg/ml FACS buffer or the antibodies of the invention also at 3 μg/ml FACS buffer and incubated on ice for 1 hour.
Afterwards, plates were centrifuged at 1,500 rpm and 4° C. for 3 minutes and washed twice with 200 μl per well of FACS buffer. For secondary staining, cells were spun down and resuspended in 100 μl per well of PE-conjugated goat anti-mouse IgG F(ab′)2 detection fragment (Dianova, Germany) diluted 1:100 in FACS buffer. Protected from light, the cell suspensions were incubated on ice for 1 hour. Plates were then centrifuged at 1,500 rpm and 4° C. for 3 minutes and washed three times with 200 μl per well of FACS buffer. Finally, cells were resuspended in 150 μl per well of FACS buffer and analyzed using a BD Accuri™ C6 Plus flow cytometer (Becton Dickinson, Germany).

[2] = biological target: T2, hiR2-FL-P533-T7 (deletion of P533); assay: FACS on MEF-DKO cells

Binder	binding result [1]	binding result [2]
antibody 3 (antibody, V domains shown, mouse IgG, kappa light chain; also called clone #3; purified antibody 3) VH: QVTLKESGPGILQPSQTLSLTCSFSGFSLTTFAMGIGWVRQPSGKGLEWLAHIWWDGEKYNNPVLKSRLTISKDTSKNQVFLRIANVDTPDTATYYCARISSIYYIIDNWGQGTSVTVSS VL: DIVLTQSPATLSVTPGHSVSLSCRASQSISNNLHWYQKKSHESPRLLIKYVSQSISGIPSRFSGSGSGTDFTLSINSVETEDFGMYFCQQSYNWPLTFGAGTKLELK	binds	no binding (tested: 3 µg/ml)
antibody 43 (antibody, V domains shown, mouse IgG, kappa light chain; also called clone #43; purified antibody 43) VH: QVALKESGPGILQPSQTLSLTCSFSGFSLSTFGMGVGWIRQSSGKGLEWLANIWWDDDKYYNPALKSRLTISKDASKNQAFLKIANVDTADTATYYCARIGNYGSNYWYFDVWGTGTTVTVSS VL: QIVLTQSPAIMSASPGERVTMTCSANSRISYMYWYQQKPGSSPRLLIYDTSNLASGVPVRFSGSGSGTSYSLTISRMEAEDAATYNCQQWSSYPLTFGAGTKLELK	binds	no binding (tested: 3 µg/ml)
antibody 44 (antibody, V domains shown, mouse IgG, kappa light chain; also called clone #44; purified antibody 44) VH: QVTLKESGPGILQPSQTLSLTCSFSGFSLSTFGMGVGWIRQPSEKGLEWLAHIWWDDDKYYNPALKSRLTISKDTSKNQIFLKITNVDTAETATYYCSRIGNYGSNYWYFDVWGTGTTVTVSS VL: QIVLTQSPAVMSASPGEKVTMTCTASSSVYYMYWYQQTPGSSPRLLIYDTSNLASGVPVRFSGSGSGTSYSLTISRMEAEDAATYYCQQWNTYPLTFGAGTKLELK	binds	no binding (tested: 3 µg/ml)
antibody 34 (antibody, V domains shown, mouse IgG, kappa light chain; also called clone #34; purified antibody 34) VH: QVTLKESGPGILQPSQTLSLTCSFSGFSLSTFSLGVGWIRQSSGKGLEWLAHIWWDDEKYYNPALKSRLTISKDTSKNQVFLKIANVDAADTATYYCARAYYSKSYYALDYWGQGTSVTVSS VL: DIQMTQSPSSLSASLGERVSLTCRASQEISGYLSWLQQKPDGTIKRLIYAASTLDSGVPKRFSGSRSGSDYSLAISSLESEDFADYYCLQYANFPFTFGSGTKLEIK	binds	no binding (tested: 3 µg/ml)
